# T1: MG281F2 construct, residues 278 to 450 with N-terminal 6-His tag and thrombin cleavage site (Mycoplasma genitalium, UniProt P47523 279-452)
# T1 sequence: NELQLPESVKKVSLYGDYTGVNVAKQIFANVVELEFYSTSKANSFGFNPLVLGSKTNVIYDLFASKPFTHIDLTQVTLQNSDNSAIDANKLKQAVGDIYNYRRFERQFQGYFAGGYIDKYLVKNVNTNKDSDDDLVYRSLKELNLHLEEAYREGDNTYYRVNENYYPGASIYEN
# Biological target: T1, MG281F2 construct, residues 278 to 450 …
# Assay: Western blot, plasma 13PL as primary antibody
binder,measurement,value
"IgG from multiple myeloma patient plasma 13PL (antibody, V domains shown, also called multiple myeloma antibody 13PL) VH: AVSLVESGGGTVEPGSTLRLSCAASGFTFGSYAFHWVRQAPGDGLEWVAFISYNGSSKYYANFVKGRFTISRDNSSNTLSLQMNSLKASDTAVYYCARAPDCAQADCHKGAFGYWGQGTLVTVSS VL: DIEMTQSPSSLSASTGDKVTITCQASQDIAQFLDWYQQRPGDTPKLLIYDASNLAIGVPSRFTGSGSGTDFTFTISSLQPEDIAVYYCQHYDDFPISFGPGTKLETKR",binding result,no binding (tested: 1 µg/µg and 2 µg/µg)

# — US20150246953A1 (Scripps Research, published 2015)
